Test system: O=C1CCCCC1
Assay: purified protein
Conditions: apparent, 0.3 mM NADPH, 50 mM sodium phosphate pH 7.7, 25 °C

## Ac CHMO (cyclohexanone monooxygenase) (Acinetobacter johnsonii)
  Km: 4.09 ± 1.81 µM
